# Measurements as given in PMC6477179.
# B1: GFP-FIP200 CTR aa 1458-1594 [human] / GST-p62 FIR 4P [human] (parent)
# chain 1: RIMLLERTLQLKEEENKRLNQRLMSQSMSSVSSRHSEKIAIRDFQVGDLVLIILDERHDNYVLFTVSPTLYFLHSESLPALDLKPGEGASGASRRPWVLGKVMEKEYCQAKKAQNRFKVPLGTKFYRVKAVSWNKKV
# chain 2: MESDNCSGGDDDWTHLSSKEVDPDTGELQSLQMPESEGPDDLDPDQEGPTGLKEA
# Variants of: B1
# Experiment: GSH bead recruitment assay imaged by microscopy
# Details: with GST-p62 FIR 4P [human];; read off a plot
row,Variant,percent of parent [%]
1,chain 1 S75A,83
2,chain 1 R127A,21
3,chain 1 L78A,100
4,chain 1 L78F,92
5,chain 1 F117A,19
6,chain 1 F117W,80
7,chain 1 R116D,21
8,chain 1 N60A,95
9,chain 1 N60F,56
